The supplement of paper PMC12042874
± gives the uncertainty stated by the source.

assay: amyloid nucleation score (Sup35N fusion, yeast selection) (log enrichment); library NNK1; higher = more nucleation; inactive = no reads after selection
How it was run: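 Output and input plasmid inserts were sequenced by Illumina after psi-negative yeast carrying Sup35N fused to peptides of 20 random codons had been induced 24 hours with 100 μM copper sulfate and grown 7 days at 30°C on medium lacking adenine and uracil. The nucleation score is the DiMSum log enrichment of output over input reads, centred on the mode score of non-aggregating sequences. Sequences with under 100 input reads were excluded.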

Point of comparison: RDKMDDWFQRHMESGTRTRE, amyloid nucleation score 0.053 ± 0.23. Against it:
- QVKDIGLPMHHACF — lower, -1.36 ± 1.1
- QVTVRM — higher, 0.987 ± 0.24
- QWAFYVNYLTSRDYFNIFTR — higher, 1.05 ± 0.16
- QWCSRRDMCFRSSVILCLWR — within error, -0.035 ± 0.75
- QWGTREYGIFLDIFVHVTVN — within error, 0.237 ± 0.56
- QYCIHNNFEYDGL — lower, -0.98 ± 0.47
- QYCKFPNIRRLRINK — within error, -0.393 ± 0.36
- QYIVW — within error, 0.142 ± 0.32
- QYNSGLDRMA — higher, 1.14 ± 0.62
- QYWVCNKPTLVDYRDTCDRT — within error, 0.023 ± 0.89
- QYYFLLYAKSDLSKWEHHQD — within error, -0.282 ± 0.97
- RAAYACWHFTLYNFSLIVTT — higher, 1.83 ± 0.57
- RAGCPDVGRRLSCSRSVLPR — higher, 0.789 ± 0.27
- RAKICFVRQGRGFIMHRLLA — higher, 1.39 ± 0.23
- RAKTWDGRGAKQP — higher, 1.22 ± 0.64
- RALSH — within error, -0.158 ± 0.74
- RARCAVGS — within error, -0.396 ± 1.5
- RASFIELVTEKRHPSHTPGK — within error, -0.473 ± 0.39
- RAVLSTSELGLPTV — within error, 0.27 ± 0.89
- RCCALTYPLFKHLG — within error, 0.573 ± 0.43
- RCDLARVLLMGRWLGPNAVW — within error, -0.359 ± 0.67
- RCDYVEWIWYPCYRRNGVCR — within error, 0.171 ± 0.39
- RCFECEGALV — within error, -0.08 ± 1.1
- RCFMFSTGEALTNEDRSLRR — higher, 1.12 ± 0.6
- RCKLLIIVIRKDTCLKYCGH — within error, 0.308 ± 0.32
- RCLEGLSIMLNDFLPPCGP — within error, -0.224 ± 0.71
- RCMLGLLNFIESIHGGR — higher, 4.89 ± 0.095
- RCMSDFRPVWVYVS — within error, -0.222 ± 0.86
- RCPYSYHGYSVNNWGSAWT — within error, 0.487 ± 0.54
- RCRAVELLEVRRLQMRSGHH — within error, -0.295 ± 0.34
- RCSFFSYCVNDAS — higher, 3.55 ± 0.12
- RCTLISRHDWGYANWMRLLL — higher, 4.81 ± 0.077
- RDSITITVNCT — higher, 2.44 ± 0.078
- RDSLSSVSA — within error, -0.382 ± 0.62
- RDSRDLMCFVRLPLDRISK — within error, -0.101 ± 0.39
- RDVAMESRVSGYVGVCGSYR — within error, -0.71 ± 1.2
- RDVDRGMHQMAPSTGVRLVL — higher, 2.81 ± 0.14
- RDYSFGGLMPGCDGEHIVS — within error, -0.138 ± 0.4
- REPVCICLIAAYGRAKPPTG — within error, 0.382 ± 0.84
- REWIYLVVETPCYFVDDVMD — lower, -0.71 ± 0.52
- RFCLAVGLRMGYFLGCSDFR — within error, -0.45 ± 1.4
- RFEIIYGWSTYVLDAGVSFQ — higher, 1.21 ± 0.13
- RFFMTHSYELYLEFRGAARR — higher, 1.28 ± 0.42
- RFLPVLVSIINKRQGGYDF — within error, 0.064 ± 0.46
- RFMYAISSVTRYPMWPGMMQ — higher, 2.45 ± 0.18
- RFNTEKRLALNNNMPLRWFS — within error, -0.125 ± 1.7
- RFQVPLCIPLINC — within error, 0.886 ± 0.74
- RFWSAL — within error, -0.148 ± 0.92
- RFWSIDRCAWSLMGGILRYG — within error, -0.01 ± 0.43
- RFYMCRLEGVPFES — within error, 0.58 ± 0.79
- RGAASKDLLMV — within error, 0.082 ± 0.86
- RGEKHVRVYRVMSV — within error, -0.192 ± 0.49
- RGGSYMFRLYCVFLYGCYFG — within error, -0.577 ± 0.72
- RGIYWVSFVLSGRIIGWMVG — within error, 0.275 ± 0.8
- RGLLYS — within error, 0.768 ± 0.75
- RGLTYVRVVGLARIGSACSV — within error, 0.335 ± 0.53
- RGMGVAWAYLSSNTRPRRLN — within error, 0.792 ± 0.76
- RGMIFLHQASCLHRDN — lower, -0.836 ± 0.61
- RGNLESFVLGNIRVTNP — higher, 1.01 ± 0.18
- RGSYHRLWCI — within error, 0.114 ± 0.72
- RGTDLSSYTSFVC — within error, 0.28 ± 0.41
- RHFEDYMELSSLSLGMGEG — within error, -0.394 ± 0.63
- RHIFIRGIVYCCVSTFRFPS — within error, -0.218 ± 0.27
- RHMRSHENVGKFWRLSCFVN — within error, -0.36 ± 0.51
- RHVAYRSLRFSGCTP — within error, 0.416 ± 0.76
- RHVSPFNSS — within error, -0.222 ± 0.31
- RIASSRVFFAFFRSLYMSGW — higher, 0.995 ± 0.47
- RIDTFTWSCKCLPPSSIWLL — within error, 0.009 ± 0.76
- RIDYWVIPGAWNSTCWRYTT — higher, 1.49 ± 0.45
- RIFNIYNGVQRRNFYYFYSC — higher, 7.532 ± 0.05
- RIGFPVRYEEFALRFIYILE — within error, -0.261 ± 0.72
- RIKFDTKMRTVQCSCGSLHS — higher, 2.78 ± 0.18
- RILYMYWVFMVLFMTPRCLD — within error, -0.099 ± 0.48
- RITHRFVFTRAFTNGRALLR — within error, 0.405 ± 0.27
- RIVYLCSSGCVRKCWLLCSG — higher, 2.29 ± 0.24
- RIWLTFTSFIYDNVDRILVQ — within error, -0.2 ± 0.67
- RIWPQIVCDIDIRP — within error, -0.444 ± 0.52
- RKASYLSAVNMQFRESFLFW — within error, -0.209 ± 0.28
- RKFMDYSLKFSWRGVIPVMR — within error, -1.83 ± 1.8
- RKFRGLVKLL — higher, 1.28 ± 0.85
- RKLKSCSTNGHIG — higher, 6.02 ± 0.063
- RKNAFDFDAS — within error, -0.099 ± 0.42
- RKNFMGSEFVLDNILCLFLL — higher, 7.583 ± 0.055
- RKSFLTLVNFYYLFRC — higher, 3.1 ± 0.12
- RKYKRTVMDMKCYWQGVWSV — within error, 0.136 ± 0.5
- RLDISSYSLFGINQVWA — higher, 2.63 ± 0.17
- RLGAGCSPSLVLS — within error, 0.197 ± 0.56
- RLKGSPHVLL — lower, -1.69 ± 1.2
- RLLVFQSCKFVRGTSLCLVT — higher, 3.66 ± 0.069
- RLRDIG — within error, -0.684 ± 1.2
- RLSGGLADHNIFNFRIT — within error, 0.805 ± 0.76
- RLSHRM — lower, -0.994 ± 0.54
- RLSRKISSWLTRYIIAWSWS — within error, -0.713 ± 0.61
- RLSSSIYAFSDIHCGMSEAQ — within error, 0.168 ± 0.26
- RLTDRHLLWIIMQELNGFLV — within error, -1.09 ± 2.7
- RLWIVPLGLWCLRHRVCCRP — within error, -0.246 ± 0.65
- RMPNGTWSIGRHLVD — within error, 0.384 ± 0.79
- RMQVKDLVDQVKTTFKCTHT — within error, 0.303 ± 0.37
- RNFLIVLPSVYRGPFI — higher, 5.36 ± 0.064
- RNFWF — within error, 0.078 ± 0.34
- RNIPGFVETVINGSCGALLT — within error, 0.636 ± 0.52
- RNLRY — within error, 0.184 ± 1.1
- RNMLELSFWCYEMKNSSSWS — higher, 1.15 ± 0.24
- RNQVRDSRVISGPNFSSMKK — within error, -0.51 ± 0.71
- RNRNCFSRYCRLIV — lower, -1.45 ± 0.56
- RNRYTFSIRLVQTDYCFLGM — higher, 1.63 ± 0.19
- RNSDSNTVGNRSFWLLGIL — within error, 0.389 ± 0.3
- RNSRICSFS — within error, 0.59 ± 0.35
- RNTFHFNNMALPVLQT — lower, -1.23 ± 0.77
- RNYPTRPYRGVINHLGFCRV — lower, -1.06 ± 0.57
- RPFRLYECCCDGELFLN — lower, -0.997 ± 0.51
- RPGGGAACAVRGRLPVCQLG — within error, -1.13 ± 0.96
- RPGMEADLLVNLPLF — within error, 0.958 ± 0.72
- RPYGPYALLWSISIYAWELL — within error, 0.508 ± 0.61
- RQDGYPRCIVRVILLECSLI — within error, -0.321 ± 0.66
- RQLVIIFNDDLGDVGNGNFC — higher, 7.61 ± 0.043
- RQRTIFWLMFWELAMFNCHM — within error, -0.423 ± 0.74
- RQSRLAYGCVLVYVLTADFG — within error, -0.025 ± 0.29
- RRAPLNLTREVSSVWEWRII — within error, -0.631 ± 0.68
- RRGFVAHLFLVLTVVCNLNS — higher, 7.2 ± 0.071
- RRGGGGSSIFLMHTAWILLE — higher, 1.03 ± 0.34
- RRGLCGNAKAIIRGLAQGWD — within error, -1 ± 1.2
- RRHTLSFVTGFCVIGFYGGD — higher, 4.48 ± 0.063
- RRMGKSFKAYTDGVQRKILS — within error, 0.593 ± 0.68
- RRPASFLFFTYPILLQVFTF — within error, -1.22 ± 2.1
- RRRCSSVGRDLMAGSDKRYE — higher, 0.663 ± 0.24
- RRRPGPLPRCAF — higher, 1.96 ± 0.18
- RRSMGRGVLVKGRGSCREYV — within error, 0.251 ± 0.81
- RRVGLVASDTGRGEWWTRSM — within error, -0.015 ± 0.55
- RRVGVYDGLRIFS — within error, 0.086 ± 0.93
- RRVGWLRTRSG — higher, 0.731 ± 0.41
- RRVNNKLRSTSGSTLTCCTY — within error, 0.216 ± 1.4
- RRWGLFDIFKMPKELNMLHW — within error, 0.915 ± 1.1
- RRWRTFLMRCKRNDTSKIRR — within error, -1.36 ± 1.2
- RSCSNRIIKCNLSHVMFY — higher, 4.45 ± 0.052
- RSDISASHRSVGLLNSHRTD — within error, -0.58 ± 1.5
- RSLFRECEKIVDRHSMSNFH — within error, 0.445 ± 0.4
- RSLLLALFAICYVCGGYEWV — higher, 1.24 ± 0.85
- RSMRDLDPTMVFGSVNSLGW — within error, 0.166 ± 0.63
- RSMYVSRRPIVPPLYIGFWE — within error, 0.166 ± 0.48
- RSRIYCGFNRPTCEGFSRLS — higher, 2.63 ± 0.11
- RSRPVPIVKDRSISNSRESR — within error, -0.999 ± 2.4
- RSSCL — within error, -2.09 ± 2.4
- RSSKYVNHASQKNAHLRGCS — within error, 0.641 ± 0.7
- RSSNNIPGGYWEPYGQHHFH — higher, 2.44 ± 0.13
- RSTYVCKIRVRMIYVDVKCS — within error, 0.596 ± 0.46
- RSVSLKWQSRKHWLLTLTLA — higher, 0.931 ± 0.32
- RSYGGLIKFNHVSDTL — within error, -0.429 ± 0.93
- RTCAWVGQHATSLWPFNRGQ — within error, 0.493 ± 0.77
- RTCSKHYIWYKALIGFALGN — within error, -0.27 ± 0.33
- RTEGVET — within error, -0.251 ± 0.58
- RTELPHFFRVFAHRFACSGD — higher, 1.31 ± 0.93
- RTILISAGAKCVNLMMLDSV — higher, 1.6 ± 0.29
- RTMHVRFDIRKVALKIFKFY — higher, 1.3 ± 0.4
- RTPHVERGTGIGLEISSTEV — within error, 0.041 ± 0.97
- RTRLFYFGPDNNRVRRRGCS — higher, 1.13 ± 0.71
- RTSRHVVVRREMRDRT — within error, 0.202 ± 0.21
- RTVVQKKPVRCNMICNYWVF — higher, 4.82 ± 0.064
- RVCKYGCAKT — within error, 0.566 ± 0.34
- RVDGVKIRGYNWHLLMITCI — within error, 0.083 ± 0.6
- RVETYRSYGAIIEVNRPVYM — within error, 0.625 ± 0.6
- RVGILRMYSMFQFFKSLQWI — within error, -0.372 ± 0.86
- RVGWMLNGAGALWFFRYKLN — within error, -0.256 ± 0.7
- RVIPAAVISHYVK — within error, -0.143 ± 1.7

In the case of QVRLKEFLYSLKCDVRYGST, the amyloid nucleation score is reported as “inactive”.
With QYEALLPLTKKNRTNTWQRQ the amyloid nucleation score was “inactive”.
For RFRSCSYLVNRSSMLAATDG, the amyloid nucleation score was “inactive”.
With RNKSGSGYKLFVSGELAQQM the amyloid nucleation score was “inactive”.
With RSFAYSLSQGYFANMNAKVR the amyloid nucleation score was “inactive”.
